According to patent publication US20100055110A1 (XOMA TECHNOLOGY, published 2010):

Target: recombinant human IL-1β (human, UniProt P01584 117-269)
Assay: cell-based or functional assay

B1: AB1 (antibody, V domains shown)
VH: QVTLKESGPGILKPSQTLSLTCSFSGFSLSTSGMGVGWIRQPSGKGLEWLAHIWWDGDESYNPSLKTQLTISKDTSRNQVFLKITSVDTVDTATYFCARARYDPPWFVDWGQGTLVTVSS
VL: DIQMTQTTSSLSASLGDRVTISCRASQDISNYLSWYQQKPDGTVKLLIYYTSKLHSGVPSRFSGSGSGTDYSLTISNLEQEDIATYFCLQGKMLPWTFGGGTKLEIK
- IC50 (read off the curve); % inhibition of IL-6 release from human fibroblasts stimulated with IL-1 beta at 100 pg/ml: ~0.2 nM
